Results from the supplement of paper PMC9170038.

tested on: K4 kissing-loop RNA reporter; assay: apparent KD of K4 kissing-loop reporter; higher = weaker reporter binding; settings: Eterna round: R107; input ligand: theophylline 20 uM
Description: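 RNA-MaP round R107: designed RNA switches with theophylline, tryptophan, arginine or FMN aptamers are transcribed on-chip within common flanks. They are titrated with a labelled K4 kissing-loop RNA reporter in RNA-MaP buffer (100 mM Tris pH 7.5, 80 mM KCl, 4 mM MgCl2), without ligand or with the indicated ligand. Median apparent KD per design.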
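Further: bound reporter read as fluorescence of individual clusters on recovered sequencing chips by microscopy, with normalized cluster intensities fitted with a binding model.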

Point of comparison: “GGGAAGAAGGCGGCCGCCACUGCAGAAGAGACAGAGAGGGUAGAAGAGGAGUGAUGUUCCAAGAACAGGACCGGGCCAAGAAGGG [whbob_SS_Tryp_B_t30]”, “apparent KD of K4 kissing-loop reporter” value 237 nM. Against it:
- AACGCUGGUGAAUAACACUAGCGAAAAUUCCGAGGACCGGUACGGCCGCCACUCGGCUAACUGCGAGUGAUGUUCGAUAAUAAAA [Mat - Mod of OpenEnded 3 - D9] — within 1.5-fold, 189 nM
- GAGAAUAACGGAAGGAGCGAGUAAUGGAGUGAUGUUCCAAUCAAUAAAACACAAUAAAAUACUCAGGUAGGUCGCCGUAGUAGUU [Exclusion Argiie B GF 12] — within 1.5-fold, 330 nM
- AUUUUUUUGUCAGGAUAUUAGUAUGCGUUUGGUUUGUUAGUGAUGUUGAUAUUUUGUUUAUGUAUUUAAGAAGGGAUUUAGCGGU [yyitemullin] — 2.1-fold higher, 497 nM
- AGAUACUUUAUCGCUAGAGGCAUUGCAGAUACCAGCCUAUCUAGAGGCCCUUGGCAGCUGGAGUGAUGUUUCGGCUUAGCUAAAG [theeternabot_exclusion_KL_Theo_A_32] — within 1.5-fold, 348 nM
- CAUAGGAAACUAUGUUUCUCUCUGACUGAAGGAGCGCGUGAAAACGCAGGUAGGUCGCAGAAUUUAACAGAGAGUGAUGUUCUCA [Ex Arginine A K4 12] — 2.7-fold higher, 633 nM
- UGCACGUAGUGAUGUUACAGCAAGUUUAUGAAGGAUAUGAGGUUAGUCAGAAGGUCAGCCGUCUCGUUGUAAGCACCUUAUCAUU [theeternabot_exclusion_KL_FMN_A_14] — 1.5-fold lower, 158 nM
- GGAUCCGCCAGUGAUGUUGGAGAAAACUCCAAGGAUAUGACGAAAGUCAGAAGGUGGUAGACUGGACAAAGUCCGGUCGGAUCCA [FmnA 26 #SwitchBubble #K4Early] — 1.5-fold lower, 157 nM
- UUAGAGGCCCAGUGAUGUUGGGUGGUUGGGCGAGGACCGGUACGGCCGCCACUCGCCGCGGAACUAUCGGAAUCUCGCUCGGCUA [Aninxearqu] — within 1.5-fold, 309 nM
- GGAUCCACCAGUGAUGUUGGAGAAAACUUCAAGGAUAUGACGAAAGUCAGAAGGUGGUAGACUGGUCAAAGUCCGGUCGGAUCCA [FmnA10 U29+U66] — 1.6-fold lower, 147 nM
- UUUUACGAGUGAUGUUCGUAUUGUAAUAGUUAGGAUAUCGUUUUUUCGAGAAGGAACUUCGAAGUGAUACGAAAGUAUCGCUUCG [FMN A 10] — 1.7-fold lower, 143 nM

same assay, conditions: Eterna round: R107; input ligand: tryptophan 2.4 mM

Point of comparison: “AAAACUCAUGGCUUAUAUCCGUGUCUCGAAGGAGCGUACAGCGGUACAGGUAGGUCGCGAGACAUGAGUGAUGUUCAUGUGUAAA [KL-XArg-A6 #analogue]”, “apparent KD of K4 kissing-loop reporter” value 104 nM. Against it:
- AUCGAUAUCAGAGGAUAUGCUUAAUAGAUUUAUUAUUAUCUAUUAUGCAGUGAUGUUGCAUAUUUUGCAGAAGGCUGAUUUCGAA [JR_SSFMNB_Sub019] — 3.9-fold higher, 403 nM
- CUUGAUGGAAACAUCGAGUAGAUUACUGAUACCAGUAUCGAUAGAUACCCUUGGCAGCAGAAUCAGUGAUCACGAGUGAUGUUCG [Ex Theophylline A K4 8] — 4.7-fold higher, 484 nM
- AGGUGAGACUGAAGGAGCGAUCGCGCCAGUGAUGUUGGUGAGCAUGACAAAGUCAUGCACGAUCAGGUAGGUCGCAGUCUUACUC [Omei KL Arginine B SS B v2] — 1.8-fold higher, 185 nM
- AAGAGGUAGGCGGCCGCCACUAGUUGUGAACACAUACGAGCCAGUGAUGUUGGUAUUGUGGGCGGUAGGACCGGGCCUACCUGAA [Exclusion - Tryptophan B (Freestyle 19)] — 2.7-fold higher, 281 nM
- UCUCUUCUCAGUGAUGUUGAGUAAUCGGAAGGAGCGCGUGAAAACGCAGGUAGGUCGCCGAUUUGUGAAGUAUCUUCGCAAGAGA [Arginine A K4 26] — 2.9-fold higher, 300 nM
- AAGGUCACUACUACAGUGAUGUUGUAGGAGCAGGAUAUGCAGAAAUGCAGAAGGGCUCGCUCCAGGUGACCGAAUGAAACAUUCA [Omei KL FMN A SS A v3] — 4.8-fold higher, 501 nM
- GGCGAUGAGUGAUGUUCAAAGAAUAAUGAUACCAGCUGAUGUCGAAGCCCUUGGCAGCAUAGAUACACCAAGUGAUGGUAAUGCC [Default title] — within 1.5-fold, 143 nM
- AACGGCCAGUCGGCCGCCACUCGAUGCAGUGAUGUUGCUAACUUUCUAAAAGAGUGAUGUUCAUGGAGGACCGGGACUAAUGUAA [#29 K4 Tryptophan B Exclusion] — 2.2-fold higher, 228 nM
- GGACCGCCAGUGAUGUUGGAGAUAAACUCCAAGGAUAUGACGAAAGUCAGAAGGUGGUAAUAAGACGUCAAAGACGUCAGGUCCA [FmnA 21 #SwitchBubble #K4Early] — 2.6-fold higher, 266 nM
- AAUUUAUUAUCUGAUACCAGACUUUUUCUUGUUUAUAAGUCAAGUGAUGUUUGACUUUUAGUCCCUUGGCAGCAGUAUUUUUUAA [JR_Nu_SSTheophyB_Sub026] — within 1.5-fold, 114 nM
- GGUAUCCAGUACCAUUGCGUUAAAACAGAAGGAGCGAGUAUGGACUCAGGUAGGUCGCUGUUUAUAGUCGAGUGAUGUUCGAAUC [Same State Arginine A GF 15] — 2.1-fold higher, 222 nM
- CCAGGAUGAUGAGGAUGAUGAAUUACUGAAGGAGCGCAUAUGGUUGCAGGUAGGUCGCGGUGAACAAGUAUAGUGAUGUUAUGCC [SSArgA.W] — 5.2-fold higher, 545 nM
- UUUGGUUUCUCGGCCGCCACUCGUUGGUUAUGGGCUUCAGGGAUAUAGUGAUGUUAUGUAUAGAAGAGGACCGGGAGAAGGAAGG [ExTryptoB.Dq] — 2.6-fold higher, 269 nM
- UCGCCAAAGUCGGCCGCCACUCCGGGCCCUAUAAAUGGGCGCAGUGAUGUUGCGGCUAGGCCUCUGAGGACCGGGACUUUGUAGA [Esenusza] — within 1.5-fold, 152 nM
- UGGACAUGACUCGAUAAGAGUCAAUGGGAUACCAGUGACGAAAGUCACCCUUGGCAGCUCAACUGCCAGUGAUGUUGGUAGUCCU [Astros-Elimod] — within 1.5-fold, 125 nM
- GUAUCGCUAGGAGGAUAUUUCGUUUUUCAUAGCAAUGGCUAUGCGGAGUGAUGUUCCGAUUUACCGGAAGAAGGCCUAGUGAUAC [FMN B 26] — 1.6-fold higher, 165 nM
- AGUAGUUGGACGGCCGCCACUAGAACAGCUUUGCCAAAGGCAGAGCACUAGAGUGAUGUUCUAGCUAGGACCGGGUCCAACUACA [Omei KL Tryp B SS A v1] — 9.6-fold higher, 1000 nM
- UGACUGGACUGAAGGAGCGAGGACGGUCAUAGACCGAAAUCAGUGAUGUUGAAAGAUAAACCUCAGGUAGGUCGCAGUCUAGUCU [ArgBS 1 #SwitchBubble #StaticStem] — 12-fold higher, 1230 nM
- AACUGUCAAGGCCGACAUUACUGAGGUGAUACCAGCAUCGAAAGAUGCCCUUGGCAGCACCAACUUGCAGUGAUGUUGCAAGUAA [BrourdMod 14 - Jieux - Exclusion - Theophylline A] — 1.8-fold higher, 184 nM
- CCUAGUCGGAUACUCAAUCCAAUGCGAGAUACCAGCGGUCUUACGCGCCCUUGGCAGCUCAUAAUGAUGAACCAGUGAUGUUGGG [theeternabot_sameState_KL_Theo_A_40] — 3.5-fold higher, 368 nM
- GGUACAGCGGAAGGAUAUCUGUCAUGGACGAUCGUAGCUUGAGCUCCCUGAGUGAUGUUUAGGAUGAGAGAAGGUCCACUCGUAU [theeternabot_exclusion_KL_FMN_B_2] — 4.3-fold higher, 450 nM
- UUUAACGAGUGAUGUUCGAAGAGUAAUGGUGAGGAUAUCGAUUUUUCGAGAAGGCGCCUCGAAGUGAUACGAAAGUAUCGCUUCG [FMN A 6] — 2.5-fold higher, 255 nM
- AGAUGUCUCUGGGAUACCAGUCGGAGUCUCAGGGCUCGGAGUGAUGUUCUGGGAUGUUUCGGCCCUUGGCAGCCCUGGGACUCCC [#2 Exclusion - Theophylline B Attempt #27 (HarryS)] — 5.2-fold higher, 542 nM
- AAUCAAUACAGAAGGAGCGUGACAAUUACUAUUGAAUUAGGAGCUAGUGAUGUUAGCAUAACACAGGUAGGUCGCUGUACAUUUA [JR_SSArginiB_Sub012] — within 1.5-fold, 148 nM
- GCCGUACGCAUGGAUACCAGCAAGUAUAUAUGCUAGUGAUGUUAGCGCUAUGCGAUGCGGUGCCCUUGGCAGCCAUGCGUACGGC — within 1.5-fold, 102 nM
- UCUGGAGCGUAUGAUACCAGCAGAGAGAGACAGGAAGUAUAGUGAUGUUAUAUGAGAGAAUGCCCUUGGCAGCGUGUGCAGUGGC [#26 K4 Theophylline B Same State] — 2.2-fold lower, 48 nM
- GACGGGCAGUGAUGUUGCCGGUCUCUUGGACGAGGACCGGUACGGCCGCCACUCGAUCUGAUGCGAGAAUUGUAUCUUUUAAUAA [Tegesosoat] — 3.3-fold higher, 347 nM
- GGAUAGGACAGAGGAUAUGGGCUAGGCAAGAAUAACUUGUCUAGCAAAUCCAUGAGGAGUGAUGUUCCAGAAGGUUGUCCUAUCG [FmnBX 1 U75] — within 1.5-fold, 87.8 nM
- GUGACCUACUCAGGAUAUCCGCAGUGAUGUUGCGGUUGGCCUGAGCGACAUGAAAAUCUUACUACAGGAGAAGGGAGAGGGUUAC [Leanteti] — within 1.5-fold, 91.5 nM
- AAUUUAUUAACUGAUACCAGACUUAAUGAAUUGUAAAUUACUAGUGAUGUUAGUGAAUCUGUCCCUUGGCAGCAGUAUUUAUUAA [JR_ExcTheophyB_Sub010] — within 1.5-fold, 124 nM
- GAGGUACAGGCGGCCGCCACUAGUGAUGUUAGUGAUAAAAGAUAUAGUAAAUAUCGGCAUGUAGAUAGGACCGGGCCUGAUGGAG [ptvcmullin] — 2-fold higher, 209 nM
- AACGCUGGUGAAUAACACUAGCGAAAAUUCCGAGGACCGGUACGGCCGCCACUCGGCUAACUGCGAGUGAUGUUCGAUAAUAAAA [Mat - Mod of OpenEnded 3 - D9] — 1.7-fold lower, 60.2 nM
- GAGAAUAACGGAAGGAGCGAGUAAUGGAGUGAUGUUCCAAUCAAUAAAACACAAUAAAAUACUCAGGUAGGUCGCCGUAGUAGUU [Exclusion Argiie B GF 12] — 2.1-fold higher, 215 nM
- GGGAAGAAGGCGGCCGCCACUGCAGAAGAGACAGAGAGGGUAGAAGAGGAGUGAUGUUCCAAGAACAGGACCGGGCCAAGAAGGG [whbob_SS_Tryp_B_t30] — within 1.5-fold, 137 nM
- AUUUUUUUGUCAGGAUAUUAGUAUGCGUUUGGUUUGUUAGUGAUGUUGAUAUUUUGUUUAUGUAUUUAAGAAGGGAUUUAGCGGU [yyitemullin] — 3.5-fold higher, 359 nM
- AGAUACUUUAUCGCUAGAGGCAUUGCAGAUACCAGCCUAUCUAGAGGCCCUUGGCAGCUGGAGUGAUGUUUCGGCUUAGCUAAAG [theeternabot_exclusion_KL_Theo_A_32] — 3.8-fold higher, 393 nM
- CAUAGGAAACUAUGUUUCUCUCUGACUGAAGGAGCGCGUGAAAACGCAGGUAGGUCGCAGAAUUUAACAGAGAGUGAUGUUCUCA [Ex Arginine A K4 12] — 4.1-fold higher, 430 nM
- UGCACGUAGUGAUGUUACAGCAAGUUUAUGAAGGAUAUGAGGUUAGUCAGAAGGUCAGCCGUCUCGUUGUAAGCACCUUAUCAUU [theeternabot_exclusion_KL_FMN_A_14] — within 1.5-fold, 155 nM
- GGAUCCGCCAGUGAUGUUGGAGAAAACUCCAAGGAUAUGACGAAAGUCAGAAGGUGGUAGACUGGACAAAGUCCGGUCGGAUCCA [FmnA 26 #SwitchBubble #K4Early] — 4.2-fold higher, 442 nM
- UUAGAGGCCCAGUGAUGUUGGGUGGUUGGGCGAGGACCGGUACGGCCGCCACUCGCCGCGGAACUAUCGGAAUCUCGCUCGGCUA [Aninxearqu] — 2.5-fold higher, 256 nM
- GGAUCCACCAGUGAUGUUGGAGAAAACUUCAAGGAUAUGACGAAAGUCAGAAGGUGGUAGACUGGUCAAAGUCCGGUCGGAUCCA [FmnA10 U29+U66] — 1.9-fold higher, 194 nM
- UUUUACGAGUGAUGUUCGUAUUGUAAUAGUUAGGAUAUCGUUUUUUCGAGAAGGAACUUCGAAGUGAUACGAAAGUAUCGCUUCG [FMN A 10] — within 1.5-fold, 130 nM
